Test results published in paper PMC5967863.

Target: full-length human TRPC3 (human) (UniProt Q13507)
Test: cryo-EM structure; purified TRPC3 at 5 mg/mL in 20 mM Tris 8.0, 500 mM NaCl, 1 mM EDTA, 0.1% digitonin; single-particle reconstruction with C4 symmetry, 3.3 Å

stoichiometry N: 4
Substance: full-length human TRPC3 (from UniProt Q13507 1-921) (natural protein)
